Numbering of substitutions follows the chain as printed. Values belong to the molecule of their own block, whether it stands above or below them.
How the values were obtained:
Circular dichroism = assay type: physicochemical; conditions: absence of DFHBI
Procedure: Circular dichroism (CD) measurements were recorded at 25 °C in a 1 mm cuvette on an AVIV model 420 CD spectrometer (Biomedical, Inc.). mFAP2 and mFAP2.1 were purified by large-scale protein purification and SEC purification[49] in phosphate-buffered saline (PBS) (25.0 mM phosphate, 150 mM NaCl, pH 7.40), and far-ultraviolet CD wavelength scans recorded from 195 nm to 260 nm. mFAP2 was measured at 0.441 mg mL^−1 and mFAP2.1 at 0.500 mg mL^−1 in Na2HPO4-citrate buffer with pH adjusted to 7.75, 3.96, or 2.93 using NaOH and HCl. The reported data was background-subtracted using buffer only contols (Supplementary Fig. 1b, c).

[1] = pH-sensitivity of β-barrel variants (fluorescence ratio fold-change pH 3.66-7.36); assay type: biochemical
Procedure: In measuring pH-sensitivity of β-barrel variants (Supplementary Fig. 1f) in technical triplicate, 140 μL of Na2HPO4-citrate (pH 7.36 or 3.66) supplemented with 150 mM NaCl and 1.43 μM DFHBI was combined with 10.0 μL of small-scale purified protein[49] for a final concentration of 1.33 μM DFHBI. Fluorescence endpoints were measured by exciting at λex = 387 nm or λex = 483 nm and measuring fluorescence emission at λem = 501 nm or λem = 504 nm, respectively. Without background subtraction, the fluorescence ratio fold-change from pH 3.66–7.36 was calculated as:2 FluorescenceRatioFold-ChangepH3.66-7.36=FpH3.66λex=387nm,λem=501nm/FpH3.66λex=483nm,λem=504nm/FpH7.36λex=387nm,λem=501nm/FpH7.36λex=483nm,λem=504nm, where FpHλex,λem is the mean of three technical replicates of endpoint fluorescence measurements at the subscripted pH value and superscripted fluorescence excitation (λex) and fluorescence emission (λem) wavelengths.

[2] = Ca2+-responsive mFAP Ca2+ titrations; assay type: binding
Procedure: In measuring Ca^2+ affinity of mFAPs on a Synergy Neo2 hybrid multi-mode reader (Fig. 4d, e, f and Supplementary Figs. 10c, f, i, 11c, f, i, 13c, f, i, 16b), large-scale purified proteins[49] were aliquoted in technical triplicate to a final concentration of 500 nM with 5.00 μM DFHBI in eleven serial dilutions ( 10 dilution factor) of CaCl2 (Sigma Aldrich) starting from either 900 mM or 90.0 mM CaCl2 (diluted using high-salt Tev cleavage buffer) including a twelfth condition without CaCl2. Final volumes were 200 μL in flat bottom, black polystyrene, non-binding surface 96-well microplates (Corning 3650). Fluorescence endpoints were measured using excitation wavelength λex = 484 nm and emission wavelength λem = 508 nm. Background fluorescence endpoints of wells with identical chromophore and CaCl2 concentrations lacking protein (substituted for equivalent volumes of high-salt Tev cleavage buffer) were measured in technical triplicate, averaged per condition, and subtracted from protein measurement averages of the same conditions.
For Ca^2+ titrations of EF4n_mFAP2a and EF4n_mFAP2b (Supplementary Fig. 13c), a small amount of Chelex 100 sodium form (Sigma Aldrich) was added to purified protein (produced by large-scale protein purification and SEC purification[49]) and nutated at 4 °C overnight. EF4n_mFAP2a was aliquoted in technical triplicate to a final concentration of 8.00 μM with 80.0 μM DFHBI and EF4n_mFAP2b was aliquoted in technical triplicate to a final concentration of 6.25 μM with 43.4 μM DFHBI, in eleven serial dilutions ( 10 dilution factor) of CaCl2 starting from 9.00 mM or 4.00 mM CaCl2 (diluted using high-salt Tev cleavage buffer pre-treated with Chelex 100) including a twelfth condition without CaCl2. Final volumes were 25.0 μL in flat bottom, black polystyrene, non-binding surface 96-well half-area microplates (Corning 3686) or 200 μL in flat bottom, black polystyrene, non-binding surface 96-well microplates (Corning 3650). Fluorescence endpoints were measured for EF4n_mFAP2a using excitation wavelength λex = 478 nm and emission wavelength λem = 520 nm, and for EF4n_mFAP2b using excitation wavelength λex = 484 nm and emission wavelength λem = 508 nm. Background fluorescence endpoints of wells with identical chromophore and CaCl2 concentrations lacking protein (substituted for equivalent volumes of high-salt Tev cleavage buffer) were measured in technical triplicate, averaged per condition, and subtracted from protein measurement averages of the same conditions. For non-linear least squares fitting to obtain Kd values, means were fit to a single-binding site isotherm function where Ca^2+-binding sites were modeled independently with a Hill coefficient of 1.

[3] = test system: human induced pluripotent stem cell (hiPSC)-derived cardiomyocytes; test: Contraction and SR Ca2+ transient imaging of cardiomyocytes; assay type: cell-based; conditions: SR-targeted; image acquisition ~16.7 Hz
Procedure: hiPSC culture and cardiomyocyte differentiation: Undifferentiated IMR90 human induced pluripotent stem cells (hiPSCs) (WiCell) were maintained in mTeSR-1 (StemCell Technologies) on tissue culture plastic coated with Matrigel diluted 1:60 (Corning) at 37 °C and 5% CO2. Cardiomyocytes were differentiated using a monolayer-based directed differentiation protocol. hiPSCs were dissociated into a single cell suspension using Versene (Life Technologies) and plated at a high density (1.5–2.5·10^5 cells cm^−2) in mTeSR containing 10 µM Y-27632 ROCK inhibitor onto Matrigel-coated plates. Twenty-four hours after plating, media was replaced with fresh mTeSR. […]
Contraction and SR Ca^2+ transient imaging: Leica DMI8 microscope controlled by MetaMorph Imaging software was used to image contraction and Ca^2+ transients of the SR in CMs. […] For mapping contraction, three different ROI traces were hand-drawn, and displacement of cells were measured in the fluorescence channel. […] In order to quantify tissue-level Ca^2+ fluxes during cardiac contraction cycling, fluorescence fold-change over the whole field of view was calculated for each frame then temporally matched with contraction data. Fluorescence fold-change in each frame was calculated by Eq. (11) where F is the fluorescence per frame, and F0 is the fluorescence of the frame with the minimum fluorescence (Fig. 5f and Supplementary Fig. 19b). […]

[4] = Fluorescence intensity of circularly permuted mFAP2a variants; assay type: biochemical; conditions: equimolar concentration
Procedure: To measure the fluorescence intensities of circularly permuted mFAP2a variants (Supplementary Fig. 22b, d), fluorescence endpoints were measured on a Synergy Neo2 hybrid multi-mode reader (BioTek) in flat bottom, black polystyrene, non-binding surface 96-well microplates (Corning 3650) or half-area microplates (Corning 3686). Fluorescence endpoints were measured in technical triplicate by exciting at λex = 488 nm and measuring fluorescence emission at λem = 510 nm (Supplementary Fig. 22b), or exciting at λex = 468 nm and measuring fluorescence emission at λem = 530 nm (Supplementary Fig. 22d). […]

B1: mFAP2.1: mFAP2 mutational variant (protein)
chain: SRAAQLLPGTWQVTMTNEDGQTSQGQMHFQPRSPYTMDVVAQGTISDGRTIVGYGKVTVKTPDTLDVDITYPSLGNIKAQGQITMDSPTQFKFDATTKGAGNFTGRLTGTLQRQE
stability by circular dichroism compared to mFAP2 (Circular dichroism): improved stability at pH 2.93

B2: mFAP2.2: most pH-responsive mutant of SDM library (protein)
chain: B1 chain with T50P
fluorescence ratio fold-change from pH 3.66–7.36, higher than mFAP2.1 [1]: ~ 1.3 fold

Ca2+-responsiveness / allostery between DFHBI and Ca2+ binding ([2]; Ca2+ titration with excess DFHBI): negative allostery | Kd ([2]; excess DFHBI compared to protein, Hill coefficient of 1): 260 µM
B3: EF1n_mFAP2b: negatively allosteric Ca2+-responsive mFAP, one EF-hand motif (protein)
chain: SRAAQLLPGTWQVTMTNEDGQTSQGQWHFQPRSPYTMDIVAQGTISDGRPIVGYGKATVKTPDTLDIDITYPSLGNIKAQGQITMDSPTQFKWDAHVDKDGDGYISAAEAAAQTKILTGTLQRQE
response time to Ca2+ fluxes [3]: less than 60 ms

B4: cp35-34_mFAP2a_12: brightest cpmFAP tested, de novo designed α-helical linker (protein)
chain: QEMDIVAQGTISDGRPIVGYGKATVKTPDTLDIDITYPSLGNIKAQGQITMDSPTQFKWDATTKGENDFHGRLTGTLQRTEEAKEATEEARRRGITTQAAQLLPGTWQATFTNEDGQTSQGQWHFQPRDG
fluorescence intensity relative to mFAP2a [4]: ~ 93%

Source: PMC7870846, “Incorporation of sensing modalities into de novo designed fluorescence-activating proteins” (Nature Communications, 2021)
